Target: EEEV virus-like particles (VLPs: C, E2, and E1) (Eastern equine encephalitis virus) (UniProt Q4QXJ7)
Assay: ELISA

For “LA3-LA3-LA3-LA3-LA3-Fc [LA3(5)-Fc] (from UniProt P01130) (Fc fusion)”, the fold increase in binding avidity was 100 fold.
